Experimental data taken from patent US20220040319A1, “METHODS OF TREATING OCULAR CANCER USING ANTI-MET ANTIBODIES AND BISPECIFIC ANTIGEN BINDING MOLECULES THAT BIND MET” (Regeneron Pharmaceuticals, Inc., priority 2019, published 2022).

How the values were obtained:
[1] = molecular target: human MET (exon14 skip mutation) on NCI-H596 cells (human) (UniProt P08581); experiment: cell-based or functional assay
[2] = molecular target: MET (c-Met, hepatocyte growth factor receptor) on cells (human) (UniProt P08581)
[3] = molecular target: MET (c-Met, hepatocyte growth factor receptor) on cells (human) (UniProt P08581); remark: listed apart in the source

Sequence of MET (c-Met, hepatocyte growth factor receptor) on cells (human) (P08581 25-1390 limits assumed, form in doubt): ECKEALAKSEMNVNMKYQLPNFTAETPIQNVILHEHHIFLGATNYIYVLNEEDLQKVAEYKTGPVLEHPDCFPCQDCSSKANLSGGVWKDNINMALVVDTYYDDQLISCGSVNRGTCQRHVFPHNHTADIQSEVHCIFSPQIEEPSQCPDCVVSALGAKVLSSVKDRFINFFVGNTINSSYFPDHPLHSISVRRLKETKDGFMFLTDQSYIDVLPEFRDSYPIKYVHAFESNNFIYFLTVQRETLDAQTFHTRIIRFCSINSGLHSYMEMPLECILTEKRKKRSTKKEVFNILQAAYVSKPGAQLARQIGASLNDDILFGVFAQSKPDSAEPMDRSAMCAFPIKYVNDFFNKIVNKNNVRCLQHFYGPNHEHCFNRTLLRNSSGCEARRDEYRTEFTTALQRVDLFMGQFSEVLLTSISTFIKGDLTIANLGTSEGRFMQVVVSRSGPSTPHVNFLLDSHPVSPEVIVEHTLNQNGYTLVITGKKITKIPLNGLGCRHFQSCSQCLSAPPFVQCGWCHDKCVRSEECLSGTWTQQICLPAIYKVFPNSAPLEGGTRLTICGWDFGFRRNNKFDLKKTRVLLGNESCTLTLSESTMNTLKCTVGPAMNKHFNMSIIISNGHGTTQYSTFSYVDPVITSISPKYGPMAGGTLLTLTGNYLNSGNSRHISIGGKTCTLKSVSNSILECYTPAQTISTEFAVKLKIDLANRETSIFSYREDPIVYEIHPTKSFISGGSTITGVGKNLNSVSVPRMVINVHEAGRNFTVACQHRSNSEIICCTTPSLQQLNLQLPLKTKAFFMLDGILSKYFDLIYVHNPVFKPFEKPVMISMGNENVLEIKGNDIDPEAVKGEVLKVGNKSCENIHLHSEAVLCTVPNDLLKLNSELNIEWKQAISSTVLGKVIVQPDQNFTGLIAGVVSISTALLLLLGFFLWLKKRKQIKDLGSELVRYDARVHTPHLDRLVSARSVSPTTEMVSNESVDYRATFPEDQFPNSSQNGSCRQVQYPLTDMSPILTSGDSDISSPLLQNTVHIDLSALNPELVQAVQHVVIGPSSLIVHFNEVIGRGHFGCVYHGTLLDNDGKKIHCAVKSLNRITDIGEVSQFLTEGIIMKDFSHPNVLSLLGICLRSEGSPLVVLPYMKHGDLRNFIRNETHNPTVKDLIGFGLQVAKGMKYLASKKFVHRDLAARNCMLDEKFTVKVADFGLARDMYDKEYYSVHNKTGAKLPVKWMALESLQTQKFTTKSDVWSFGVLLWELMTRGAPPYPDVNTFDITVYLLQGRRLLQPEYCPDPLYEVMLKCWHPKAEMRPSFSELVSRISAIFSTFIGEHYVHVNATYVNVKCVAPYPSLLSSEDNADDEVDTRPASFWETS
Sequence of human MET (exon14 skip mutation) on NCI-H596 cells (human) (P08581 25-1390, change not shown): as the sequence (P08581 25-1390 limits assumed, form in doubt) above

Relative Cell Growth (n = 3), NCI-H596 cells in soft agar, 100 ng/mL HGF, two weeks (normalized to control) [1] | IC50 (read off the curve); blocking of HGF-dependent SRE-driven luciferase signal in HEK293T cells [2] [pM] | IC50 (read off the curve); blocking of HGF-induced SRE-luciferase signal in HEK293/SRE-Luc cells [3] [pM] | Substance
7.88 |  |  | hepatocyte growth factor (from UniProt P14210 32-728) (ligand)
 | 400 | 60 | monovalent anti-MET antibody (made with the heavy and light chain variable sequences of MetMab)
